Reference: the Immune Epitope Database (IEDB)
One block for each sequence: values may come before it.

Legend:
HLA-B*15:01 [1] = experiment: IEDB peptide-MHC binding, purified MHC/competitive/fluorescence; filed as Kd, often an IC50 or EC50 that approximates it; ≥ and ≤ were set here for values at or beyond the usual limits of such assays; conditions: source organism: Francisella tularensis subsp. tularensis FSC198
HLA-B*08:01 [2] = experiment: as above; conditions: source organism: Francisella tularensis subsp. tularensis FSC198
HLA-A*26:02 = experiment: as above
HLA-A*02:03 = experiment: as above; conditions: source organism: Francisella tularensis subsp. tularensis FSC198
HLA-A*68:02 [3] = experiment: IEDB peptide-MHC binding, purified MHC/direct/fluorescence; filed as Kd, often an IC50 or EC50 that approximates it; ≥ and ≤ were set here for values at or beyond the usual limits of such assays; conditions: source organism: Francisella tularensis subsp. holarctica LVS
HLA-A*31:01 = experiment: as above
HLA-B*27:05 [4] = experiment: as above
HLA-A*69:01 = experiment: as above; conditions: source organism: Francisella tularensis subsp. holarctica LVS
HLA-A*01:01 = experiment: as above
HLA-B*15:17 [5] = experiment: as above
HLA-B*18:01 = experiment: as above
HLA-B*39:01 = experiment: as above
HLA-B*07:02 = experiment: as above
HLA-B*58:01 = experiment: as above
HLA-B*57:01 = experiment: as above
HLA-A*11:01 [6] = experiment: as above
HLA-B*48:01 = experiment: as above
HLA-B*15:09 = experiment: as above
HLA-A*24:02 [7] = experiment: IEDB peptide-MHC binding, purified MHC/competitive/fluorescence; filed as Kd, often an IC50 or EC50 that approximates it; ≥ and ≤ were set here for values at or beyond the usual limits of such assays
HLA-A*02:16 = experiment: as above; conditions: source organism: Pseudomonas aeruginosa PACS2
HLA-A*68:02 [8] = experiment: as above
HLA-B*15:01 [9] = experiment: IEDB peptide-MHC binding, purified MHC/direct/fluorescence; filed as Kd, often an IC50 or EC50 that approximates it; ≥ and ≤ were set here for values at or beyond the usual limits of such assays
HLA-A*03:01 = experiment: as above; conditions: source organism: Bacillus anthracis
HLA-B*08:01 [10] = experiment: as above; conditions: source organism: Bacillus anthracis str. A0465
HLA-A*24:02 [11] = experiment: as above; conditions: source organism: Bacillus anthracis
HLA-A*23:01 = experiment: as above; conditions: source organism: Bacillus anthracis
HLA-A*24:03 = experiment: as above; conditions: source organism: Bacillus anthracis
HLA-A*02:01 [12] = experiment: as above; conditions: source organism: Bacillus anthracis
HLA-A*26:01 [13] = experiment: as above; conditions: source organism: Bacillus anthracis str. A0465
HLA-B*27:05 [14] = experiment: IEDB peptide-MHC binding, purified MHC/competitive/fluorescence; filed as Kd, often an IC50 or EC50 that approximates it; ≥ and ≤ were set here for values at or beyond the usual limits of such assays
HLA-C*15:02 = experiment: IEDB peptide-MHC binding, purified MHC/direct/fluorescence; filed as Kd, often an IC50 or EC50 that approximates it; ≥ and ≤ were set here for values at or beyond the usual limits of such assays
HLA-C*14:02 = experiment: as above; conditions: source organism: Entamoeba histolytica HM-1:IMSS
HLA-B*15:17 [15] = experiment: IEDB peptide-MHC binding, purified MHC/competitive/fluorescence; filed as Kd, often an IC50 or EC50 that approximates it; ≥ and ≤ were set here for values at or beyond the usual limits of such assays; conditions: source organism: Vaccinia virus WR
HLA-B*35:01 = experiment: as above; conditions: source organism: Vaccinia virus WR
HLA-A*30:01 = experiment: as above; conditions: source organism: Vaccinia virus WR
HLA-A*02:01 [16] = experiment: as above; conditions: source organism: Vaccinia virus WR
HLA-A*11:01 [17] = experiment: as above; conditions: source organism: Vaccinia virus WR
HLA-A*26:01 [18] = experiment: as above; conditions: source organism: Vaccinia virus WR
HLA-C*12:03 = experiment: IEDB peptide-MHC binding, purified MHC/direct/fluorescence; filed as Kd, often an IC50 or EC50 that approximates it; ≥ and ≤ were set here for values at or beyond the usual limits of such assays
HLA-B*46:01 = experiment: as above; conditions: source organism: Camelpox virus M-96
HLA-C*03:03 = experiment: as above; conditions: source organism: Yersinia frederiksenii ATCC 33641
[19] = source organism: Francisella tularensis subsp. holarctica LVS
[20] = source organism: Francisella tularensis subsp. tularensis FSC033
[21] = source organism: Bacillus anthracis
[22] = source organism: Bacillus anthracis str. A0465
[23] = source organism: Entamoeba histolytica HM-1:IMSS
[24] = source organism: Vaccinia virus WR
[25] = source organism: Camelpox virus M-96
[26] = source organism: Yersinia frederiksenii ATCC 33641

Sequence: KRINSLIKY
Kd (HLA-B*15:01 [1]): 3 µM | Kd (HLA-B*08:01 [2]): ≥ 20 µM | Kd (HLA-A*26:02; source organism: Francisella tularensis subsp. tularensis FSC198): ≥ 20 µM | Kd (HLA-A*02:03): 2.47 µM | Kd (HLA-A*68:02 [3]): ≥ 20 µM | Kd (HLA-A*31:01; [19]): ≥ 20 µM | Kd (HLA-B*27:05 [4]; [19]): 0.132 µM | Kd (HLA-A*69:01): ≥ 20 µM | Kd (HLA-A*01:01; [19]): ≥ 20 µM | Kd (HLA-B*15:17 [5]; [19]): ≥ 20 µM | Kd (HLA-B*18:01; [19]): ≥ 20 µM | Kd (HLA-B*39:01; [20]): ≥ 20 µM | Kd (HLA-B*07:02; [19]): ≥ 20 µM | Kd (HLA-B*58:01; [19]): ≥ 20 µM | Kd (HLA-B*57:01; [19]): ≥ 20 µM | Kd (HLA-A*11:01 [6]; [19]): ≥ 20 µM | Kd (HLA-B*48:01; [19]): ≥ 20 µM | Kd (HLA-B*15:09; [20]): ≥ 20 µM

Sequence: PYMSALFWI
Kd (HLA-A*24:02 [7]; source organism: Cryptosporidium parvum Iowa II): 0.0008 µM

Kd (HLA-A*02:16): 0.345 µM | Kd (HLA-B*07:02; source organism: Pseudomonas aeruginosa): 7.02 µM
Sequence: RLTGREGAV

Sequence: YFENSDLNL
Kd (HLA-A*68:02 [8]; source organism: Bacillus anthracis str. A2012): ≥ 20 µM | Kd (HLA-A*31:01; [21]): ≥ 20 µM | Kd (HLA-B*15:01 [9]; [21]): ≥ 5 µM | Kd (HLA-A*03:01): ≥ 20 µM | Kd (HLA-B*08:01 [10]): ≥ 20 µM | Kd (HLA-A*24:02 [11]): 7.5 µM | Kd (HLA-B*27:05 [4]; [21]): ≥ 20 µM | Kd (HLA-A*01:01; [21]): ≥ 20 µM | Kd (HLA-B*15:17 [5]; [21]): ≥ 20 µM | Kd (HLA-B*18:01; [21]): ≥ 20 µM | Kd (HLA-A*23:01): 0.65 µM | Kd (HLA-B*39:01; [22]): ≥ 20 µM | Kd (HLA-B*07:02; [21]): ≥ 20 µM | Kd (HLA-B*58:01; [21]): ≥ 20 µM | Kd (HLA-A*24:03): 0.13 µM | Kd (HLA-A*02:01 [12]): ≥ 20 µM | Kd (HLA-B*57:01; [21]): ≥ 20 µM | Kd (HLA-A*11:01 [6]; [21]): ≥ 20 µM | Kd (HLA-A*26:01 [13]): ≥ 20 µM | Kd (HLA-B*15:09; [22]): ≥ 20 µM

Sequence: KYNGIITDTI
Kd (HLA-A*24:02 [7]; source organism: Influenza A virus (A/goose/Guangdong/1/1996(H5N1))): 0.0002 µM

Sequence: RYSGFVRTLF
Kd (HLA-A*24:02 [7]; source organism: Influenza A virus (A/turkey/Ohio/313053/2004(H3N2))): ≤ 0.0001 µM

Sequence: GKLNRLIGK
Kd (HLA-B*27:05 [14]; source organism: Influenza A virus (A/Hong Kong/CUHK13527/2003(H3N2))): 1.84 µM

Sequence: SWLYNYFVF
Kd (HLA-A*24:02 [7]; [23]): 0.0003 µM | Kd (HLA-C*15:02; [23]): ≥ 20 µM | Kd (HLA-C*14:02): 0.438 µM

Sequence: KQWRGDKML
Kd (HLA-B*27:05 [14]; source organism: Bacillus thuringiensis str. Al Hakam): 0.0852 µM

Sequence: FVFEATKLY
Kd (HLA-A*68:02 [8]; [24]): 0.0496 µM | Kd (HLA-A*26:02; [24]): 0.0668 µM | Kd (HLA-B*15:17 [15]): 0.12 µM | Kd (HLA-B*35:01): 0.0057 µM | Kd (HLA-A*30:01): ≥ 20 µM | Kd (HLA-A*02:01 [16]): ≥ 20 µM | Kd (HLA-A*11:01 [17]): 2.08 µM | Kd (HLA-A*26:01 [18]): 0.0167 µM | Kd (HLA-A*31:01; [25]): ≥ 20 µM | Kd (HLA-B*15:01 [9]; [25]): 0.0177 µM | Kd (HLA-C*12:03; [24]): ≤ 0.001 µM | Kd (HLA-B*27:05 [4]; [25]): ≥ 20 µM | Kd (HLA-A*01:01; [25]): ≥ 20 µM | Kd (HLA-B*46:01): ≥ 20 µM | Kd (HLA-B*07:02; [25]): ≥ 20 µM | Kd (HLA-B*58:01; [25]): ≥ 20 µM | Kd (HLA-B*57:01; [25]): ≥ 20 µM | Kd (HLA-B*48:01; [25]): ≥ 20 µM

Sequence: LAIEATLAF
Kd (HLA-C*03:03): ≥ 20 µM | Kd (HLA-C*12:03; [26]): 1.04 µM | Kd (HLA-C*15:02; [26]): ≥ 20 µM
